Reference: publication PMC7190626

Tests used:
[1] = sucrose density gradient fractionation, PAGE NIR; conditions: glycan lost; control: WT SNAP-α1D
[2] = confocal colocalisation with ER stain CytoPainter; conditions: glycan lost; control: WT SNAP-α1D
[3] = PAGE NIR of SNAP-labelled HEK293 lysate; conditions: glycan lost; control: WT SNAP-α1D
[4] = cell-impermeable SNAP substrate BG-782 surface labelling; conditions: glycan lost; control: WT SNAP-α1D
[5] = dual SNAP/CLIP tag PAGE NIR; conditions: glycan lost; control: S-WT-C
[6] = SNAP-Capture pull-down, MS/MS peptide coverage; conditions: glycan lost; control: WT SNAP-α1D
[7] = PAGE NIR after 16 hr tunicamycin; conditions: glycan lost; control: EtOH vehicle

| Protein | localisation_or_trafficking, other: % total AUC in low-density (ER) peak [1] | other: full-length receptor biogenesis [3] | localisation_or_trafficking, other: % change from SNAP alone [4] | also measured |
| --- | --- | --- | --- | --- |
| α1D-adrenergic receptor (α1D-AR): N65Q (protein) parent chain: MTFRDLLSVSFEGPRPDSSAGGSSAGGGGGSAGGAAPSEGPAVGGVPGGAGGGGGVVGAGSGEDNRSSAGEPGSAGAGGDVNGTAAVGGLVVSAQGVGVGVFLAAFILMAVAGNLLVILSVACNRHLQTVTNYFIVNLAVADLLLSATVLPFSATMEVLGFWAFGRAFCDVWAAVDVLCCTASILSLCTISVDRYVGVRHSLKYPAIMTERKAAAILALLWVVALVVSVGPLLGWKEPVPPDERFCGITEEAGYAVFSSVCSFYLPMAVIVVMYCRVYVVARSTTRSLEAGVKRERGKASEVVLRIHCRGAATGADGAHGMRSAKGHTFRSSLSVRLLKFSREKKAAKTLAIVVGVFVLCWFPFFFVLPLGSLFPQLKPSEGVFKVIFWLGYFNSCVNPLIYPCSSREFKRAFLRLLRCQCRRRRRRRPLWRVYGHHWRASTSGLRQDCAPSSGDAPPGAPLALTALPDPDPEPPGTPEMQAPVASRRKPPSAFREWRLLGPFRRPTTQLRAKVSSLSHKIRAGGAQRAEAACAQRSEVEAVSLGVPHEVAEGATCQAYELADYSNLRETDI | changes, 46.33 vs 92.47 | no change | decreases, 13.40 ± 4.65 vs 46.13 ± 5.61 | localisation_or_trafficking, other: Pearson's coefficient [2]: no change, 0.70 ± 0.04 vs 0.72 ± 0.03 |
| α1D-adrenergic receptor (α1D-AR): S-NQQ-C (protein) parent chain: MTFRDLLSVSFEGPRPDSSAGGSSAGGGGGSAGGAAPSEGPAVGGVPGGAGGGGGVVGAGSGEDNRSSAGEPGSAGAGGDVNGTAAVGGLVVSAQGVGVGVFLAAFILMAVAGNLLVILSVACNRHLQTVTNYFIVNLAVADLLLSATVLPFSATMEVLGFWAFGRAFCDVWAAVDVLCCTASILSLCTISVDRYVGVRHSLKYPAIMTERKAAAILALLWVVALVVSVGPLLGWKEPVPPDERFCGITEEAGYAVFSSVCSFYLPMAVIVVMYCRVYVVARSTTRSLEAGVKRERGKASEVVLRIHCRGAATGADGAHGMRSAKGHTFRSSLSVRLLKFSREKKAAKTLAIVVGVFVLCWFPFFFVLPLGSLFPQLKPSEGVFKVIFWLGYFNSCVNPLIYPCSSREFKRAFLRLLRCQCRRRRRRRPLWRVYGHHWRASTSGLRQDCAPSSGDAPPGAPLALTALPDPDPEPPGTPEMQAPVASRRKPPSAFREWRLLGPFRRPTTQLRAKVSSLSHKIRAGGAQRAEAACAQRSEVEAVSLGVPHEVAEGATCQAYELADYSNLRETDI |  |  |  | other: full-length receptor biogenesis [5]: abolishes |
| α1D-adrenergic receptor (α1D-AR): NQQ (protein) parent chain: MTFRDLLSVSFEGPRPDSSAGGSSAGGGGGSAGGAAPSEGPAVGGVPGGAGGGGGVVGAGSGEDNRSSAGEPGSAGAGGDVNGTAAVGGLVVSAQGVGVGVFLAAFILMAVAGNLLVILSVACNRHLQTVTNYFIVNLAVADLLLSATVLPFSATMEVLGFWAFGRAFCDVWAAVDVLCCTASILSLCTISVDRYVGVRHSLKYPAIMTERKAAAILALLWVVALVVSVGPLLGWKEPVPPDERFCGITEEAGYAVFSSVCSFYLPMAVIVVMYCRVYVVARSTTRSLEAGVKRERGKASEVVLRIHCRGAATGADGAHGMRSAKGHTFRSSLSVRLLKFSREKKAAKTLAIVVGVFVLCWFPFFFVLPLGSLFPQLKPSEGVFKVIFWLGYFNSCVNPLIYPCSSREFKRAFLRLLRCQCRRRRRRRPLWRVYGHHWRASTSGLRQDCAPSSGDAPPGAPLALTALPDPDPEPPGTPEMQAPVASRRKPPSAFREWRLLGPFRRPTTQLRAKVSSLSHKIRAGGAQRAEAACAQRSEVEAVSLGVPHEVAEGATCQAYELADYSNLRETDI |  | abolishes, primarily expressed as a single, robust band of ~43 kDa in size |  | other: full-length receptor biogenesis [6]: abolishes |
| α1D-adrenergic receptor (α1D-AR): N82Q (protein) parent chain: MTFRDLLSVSFEGPRPDSSAGGSSAGGGGGSAGGAAPSEGPAVGGVPGGAGGGGGVVGAGSGEDNRSSAGEPGSAGAGGDVNGTAAVGGLVVSAQGVGVGVFLAAFILMAVAGNLLVILSVACNRHLQTVTNYFIVNLAVADLLLSATVLPFSATMEVLGFWAFGRAFCDVWAAVDVLCCTASILSLCTISVDRYVGVRHSLKYPAIMTERKAAAILALLWVVALVVSVGPLLGWKEPVPPDERFCGITEEAGYAVFSSVCSFYLPMAVIVVMYCRVYVVARSTTRSLEAGVKRERGKASEVVLRIHCRGAATGADGAHGMRSAKGHTFRSSLSVRLLKFSREKKAAKTLAIVVGVFVLCWFPFFFVLPLGSLFPQLKPSEGVFKVIFWLGYFNSCVNPLIYPCSSREFKRAFLRLLRCQCRRRRRRRPLWRVYGHHWRASTSGLRQDCAPSSGDAPPGAPLALTALPDPDPEPPGTPEMQAPVASRRKPPSAFREWRLLGPFRRPTTQLRAKVSSLSHKIRAGGAQRAEAACAQRSEVEAVSLGVPHEVAEGATCQAYELADYSNLRETDI | no change, 89.13 vs 92.47 | no change | decreases, 9.49 ± 5.95 vs 46.13 ± 5.61 |  |
| α1D-adrenergic receptor (α1D-AR): tunicamycin 5 μg/mL (protein) parent chain: MTFRDLLSVSFEGPRPDSSAGGSSAGGGGGSAGGAAPSEGPAVGGVPGGAGGGGGVVGAGSGEDNRSSAGEPGSAGAGGDVNGTAAVGGLVVSAQGVGVGVFLAAFILMAVAGNLLVILSVACNRHLQTVTNYFIVNLAVADLLLSATVLPFSATMEVLGFWAFGRAFCDVWAAVDVLCCTASILSLCTISVDRYVGVRHSLKYPAIMTERKAAAILALLWVVALVVSVGPLLGWKEPVPPDERFCGITEEAGYAVFSSVCSFYLPMAVIVVMYCRVYVVARSTTRSLEAGVKRERGKASEVVLRIHCRGAATGADGAHGMRSAKGHTFRSSLSVRLLKFSREKKAAKTLAIVVGVFVLCWFPFFFVLPLGSLFPQLKPSEGVFKVIFWLGYFNSCVNPLIYPCSSREFKRAFLRLLRCQCRRRRRRRPLWRVYGHHWRASTSGLRQDCAPSSGDAPPGAPLALTALPDPDPEPPGTPEMQAPVASRRKPPSAFREWRLLGPFRRPTTQLRAKVSSLSHKIRAGGAQRAEAACAQRSEVEAVSLGVPHEVAEGATCQAYELADYSNLRETDI |  |  |  | other: full-length receptor biogenesis [7]: changes |
